Measurements reported in patent EP4818204A1 (Nanjing Leads Biolabs Co., Ltd., dated 2026).
Read-outs that look alike come from different tables or passages of the source.

Legend:
Test in all cases: ELISA, coated protein, antibody at 4 µg/mL
human Activin A protein [1] = target: T1, human Activin A protein (human, UniProt P08476 311-426)
T1 construct: Bought; Activin A is by nature a dimer of inhibin beta A chains
T1 sequence (looked up): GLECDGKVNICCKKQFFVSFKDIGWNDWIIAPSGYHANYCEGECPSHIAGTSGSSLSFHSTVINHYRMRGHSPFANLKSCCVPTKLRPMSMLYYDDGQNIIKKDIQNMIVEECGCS

human BMP2 protein [2] = target: T2, human BMP2 protein (human, UniProt P12643 283-396)
T2 construct: Bought
T2 sequence (P12643 283-396 limits assumed): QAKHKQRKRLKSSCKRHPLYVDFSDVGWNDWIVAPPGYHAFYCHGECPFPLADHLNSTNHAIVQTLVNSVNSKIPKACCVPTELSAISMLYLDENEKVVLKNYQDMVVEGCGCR

human GDF2 protein [3] = target: T3, human GDF2 protein (human, UniProt Q9UK05 320-429)
T3 construct: Bought
T3 sequence (looked up): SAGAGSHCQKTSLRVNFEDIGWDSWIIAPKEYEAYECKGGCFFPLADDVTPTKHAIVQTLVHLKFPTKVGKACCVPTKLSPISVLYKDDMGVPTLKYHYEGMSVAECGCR

human Activin B protein [4] = target: T4, human Activin B protein (human, UniProt P09529 293-407)
T4 construct: Bought; Activin B is by nature a dimer of inhibin beta B chains
T4 sequence (looked up): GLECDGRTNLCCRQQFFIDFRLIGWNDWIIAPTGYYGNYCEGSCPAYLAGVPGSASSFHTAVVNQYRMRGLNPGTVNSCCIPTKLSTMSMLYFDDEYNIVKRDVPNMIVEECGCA

[5] = target: human AMH protein (human) (UniProt P03971)
[6] = target: human GDF8 protein (human) (UniProt O14793)
human GFRα1 protein [7] = target: T5, human GFRα1 protein (human, UniProt P56159 25-429, limits assumed)
T5 construct: Bought
T5 sequence (looked up): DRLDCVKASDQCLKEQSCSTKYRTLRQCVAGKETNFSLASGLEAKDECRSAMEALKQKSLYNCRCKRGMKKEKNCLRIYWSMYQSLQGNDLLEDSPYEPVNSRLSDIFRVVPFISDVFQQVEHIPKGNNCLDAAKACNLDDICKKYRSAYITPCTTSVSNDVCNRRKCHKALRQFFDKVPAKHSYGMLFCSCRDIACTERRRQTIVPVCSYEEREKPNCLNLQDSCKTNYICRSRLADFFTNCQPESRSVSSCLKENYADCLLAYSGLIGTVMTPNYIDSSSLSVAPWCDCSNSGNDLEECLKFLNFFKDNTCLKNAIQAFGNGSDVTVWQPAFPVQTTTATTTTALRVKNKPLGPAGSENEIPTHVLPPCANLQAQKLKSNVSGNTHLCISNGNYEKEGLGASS

human GDF11 protein [8] = target: T6, human GDF11 protein (human, UniProt O95390 299-407)
T6 construct: Bought
T6 sequence (looked up): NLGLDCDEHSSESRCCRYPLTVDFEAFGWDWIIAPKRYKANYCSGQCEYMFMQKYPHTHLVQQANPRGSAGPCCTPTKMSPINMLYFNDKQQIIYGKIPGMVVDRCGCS

Human GDF15 protein [9] = target: T7, Human GDF15 protein (human, UniProt Q99988 197-308)
T7 construct: Natural GDF15 is said to be a disulfide-linked homodimer; also called Human-GDF15-his
T7 sequence: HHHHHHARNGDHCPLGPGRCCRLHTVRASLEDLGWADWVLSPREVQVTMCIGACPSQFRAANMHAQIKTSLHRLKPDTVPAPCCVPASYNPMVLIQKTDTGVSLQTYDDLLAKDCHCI

human GDF3 protein [10] = target: T8, human GDF3 protein (human, UniProt Q9NR23 251-364, limits assumed)
T8 construct: Bought
T8 sequence (looked up): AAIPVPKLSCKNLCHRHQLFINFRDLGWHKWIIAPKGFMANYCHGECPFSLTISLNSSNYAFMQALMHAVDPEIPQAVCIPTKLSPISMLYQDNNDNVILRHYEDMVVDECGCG

human BMP4 protein [11] = target: T9, human BMP4 protein (human, UniProt P12644 293-408)
T9 construct: Bought
T9 sequence (looked up): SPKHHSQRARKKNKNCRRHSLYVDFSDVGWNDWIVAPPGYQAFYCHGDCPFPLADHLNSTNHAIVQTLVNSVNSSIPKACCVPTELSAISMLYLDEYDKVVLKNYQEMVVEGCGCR

human TGFβ1 protein [12] = target: T10, human TGFβ1 protein (human, UniProt P01137 279-390)
T10 construct: Bought
T10 sequence (P01137 279-390 limits assumed): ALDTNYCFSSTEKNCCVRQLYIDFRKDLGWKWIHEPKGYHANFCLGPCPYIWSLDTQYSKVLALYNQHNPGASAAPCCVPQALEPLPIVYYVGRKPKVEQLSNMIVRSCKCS

human GDF1 protein [13] = target: T11, human GDF1 protein (human, UniProt P27539 254-372, limits assumed)
T11 construct: Bought
T11 sequence (looked up): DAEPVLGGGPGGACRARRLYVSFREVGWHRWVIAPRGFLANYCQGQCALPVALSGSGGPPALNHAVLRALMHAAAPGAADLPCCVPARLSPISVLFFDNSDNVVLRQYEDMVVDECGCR

human GDNF protein [14] = target: T12, human GDNF protein (human, UniProt P39905 78-211)
T12 construct: Bought
T12 sequence (looked up): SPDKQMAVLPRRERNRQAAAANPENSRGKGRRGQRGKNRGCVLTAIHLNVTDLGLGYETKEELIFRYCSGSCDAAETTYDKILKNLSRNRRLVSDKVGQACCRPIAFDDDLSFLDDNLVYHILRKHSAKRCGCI

human Activin A protein [15] = target: T1, human Activin A protein; remark: listed apart in the source
human BMP2 protein [16] = target: T2, human BMP2 protein; remark: listed apart in the source
human GDF2 protein [17] = target: T3, human GDF2 protein; remark: listed apart in the source
human Activin B protein [18] = target: T4, human Activin B protein; remark: listed apart in the source
[19] = target: human AMH protein (human) (UniProt P03971); remark: listed apart in the source
[20] = target: human GDF8 protein (human) (UniProt O14793); remark: listed apart in the source
human GFRα1 protein [21] = target: T5, human GFRα1 protein; remark: listed apart in the source
human GDF11 protein [22] = target: T6, human GDF11 protein; remark: listed apart in the source
Human GDF15 protein [23] = target: T7, Human GDF15 protein; remark: listed apart in the source
human GDF3 protein [24] = target: T8, human GDF3 protein; remark: listed apart in the source
human BMP4 protein [25] = target: T9, human BMP4 protein; remark: listed apart in the source
human TGFβ1 protein [26] = target: T10, human TGFβ1 protein; remark: listed apart in the source
human GDF1 protein [27] = target: T11, human GDF1 protein; remark: listed apart in the source
human GDNF protein [28] = target: T12, human GDNF protein; remark: listed apart in the source

- OD value (OD 450 nm-620 nm) (human Activin A protein [1]): 0.0474
- OD value (OD 450 nm-620 nm) (human BMP2 protein [2]): 0.055
- OD value (OD 450 nm-620 nm) (human GDF2 protein [3]): 0.0444
- OD value (OD 450 nm-620 nm) (human Activin B protein [4]): 0.082
- OD value (OD 450 nm-620 nm) [5]: 0.0569
- OD value (OD 450 nm-620 nm) [6]: 0.0485
- OD value (OD 450 nm-620 nm) (human GFRα1 protein [7]): 0.0807
- OD value (OD 450 nm-620 nm) (human GDF11 protein [8]): 0.0659
- OD value (OD 450 nm-620 nm) (Human GDF15 protein [9]): 0.043
- OD value (OD 450 nm-620 nm) (human GDF3 protein [10]): 0.0556
- OD value (OD 450 nm-620 nm) (human BMP4 protein [11]): 0.0464
- OD value (OD 450 nm-620 nm) (human TGFβ1 protein [12]): 0.111
- OD value (OD 450 nm-620 nm) (human GDF1 protein [13]): 0.101
- OD value (OD 450 nm-620 nm) (human GDNF protein [14]): 0.0493
- OD value (OD 450 nm-620 nm) (human Activin A protein [15]): 0.0524
- OD value (OD 450 nm-620 nm) (human BMP2 protein [16]): 0.0463
- OD value (OD 450 nm-620 nm) (human GDF2 protein [17]): 0.0622
- OD value (OD 450 nm-620 nm) (human Activin B protein [18]): 0.168
- OD value (OD 450 nm-620 nm) [19]: 0.0465
- OD value (OD 450 nm-620 nm) [20]: 0.0351
- OD value (OD 450 nm-620 nm) (human GFRα1 protein [21]): 0.125
- OD value (OD 450 nm-620 nm) (human GDF11 protein [22]): 0.038
- OD value (OD 450 nm-620 nm) (Human GDF15 protein [23]): 0.0386
- OD value (OD 450 nm-620 nm) (human GDF3 protein [24]): 0.04
- OD value (OD 450 nm-620 nm) (human BMP4 protein [25]): 0.0439
- OD value (OD 450 nm-620 nm) (human TGFβ1 protein [26]): 0.0376
- OD value (OD 450 nm-620 nm) (human GDF1 protein [27]): 0.0416
- OD value (OD 450 nm-620 nm) (human GDNF protein [28]): 0.036
Substance: IgG control (Sino Biological, Cat. No.: HG1K) (antibody)
